The values below come from patent US20230331840A1.

In one assay the target is h CD22-His (human) (UniProt P20273). In words: BLI (Fortebio). (In general: Biolayer interferometry detects binding as a change in optical thickness at a sensor tip.)
For the next assay, the target named is CD22-his (human) (UniProt P20273). The assay is described as follows: ELISA. (In an ELISA, binding on a coated surface is turned into a signal by an enzyme label.)

A word on the Kd: it is a measure of binding affinity in units of concentration. A high value points to lower affinity. The term EC50 denotes the concentration needed to bring the measured effect to its halfway point. Read a high EC50 as weaker potency. In the case of M971, the Kd in the assay with h CD22-His (human) worked out at 0.86 nM. In the assay with CD22-his (human), the EC50 turned out to be 0.195 nM.
